Measurements from the supplement of paper PMC7125110.
± gives the standard error. Variants at the floor of the assay were thinned out.

B1: glmS ribozyme (parent)
chain: AUAAAAGCGCCAGAACUACAGAAAUGUAGUUGACGAGGAGGAGGUUUAUCGAAUUUUCGGCGGAUGCCUCCAAA

Variants of: B1
Assay: self-cleavage kobs at 2500 uM GlcN6P; higher = faster cleavage; RNA array
Conditions: with glucosamine-6-phosphate
Method in brief: (§1)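 Barcoded ribozyme variants were transcribed in situ on sequenced MiSeq chips by E. coli RNA polymerase. At 37 °C, a hybridised Cy3 probe tracked them while glucosamine-6-phosphate (40 μM to 10 mM) in HEPES/KCl/Mg(OAc)2 buffer flowed in and tiles were imaged over ~14 h. Per-tile medians of signals normalised to baseline and to non-cleaving reference variants were fit to one- or two-exponential decays, giving kobs. kcat and KM came from weighted Michaelis–Menten fits across concentrations.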
AUAAAAGCGCCAGAACUACAGAAAUGUAGUUGACGAGGAGUAGGCUUAUCGAAUUGUCGGCGGAUGCCUCCAAA was tested, and the “self-cleavage kobs at 2500 uM GlcN6P” value was 7.1e-05 ± 3.2e-05 s⁻¹.
In the case of AUAAAAACGCCAGAACUACAGAAAUGUAGUUGACGUGGAGGAGGUGUCUCGAAUUUUCGGCGGAUGCCUUGAAA, the “self-cleavage kobs at 2500 uM GlcN6P” value is reported as less than 1e-05 s⁻¹.
AUAAAAGCGCCAGAACUACAGAAAUGUAGUUGACGAGGUGGAGUUUUAUCGAUUUUUCGGCGGAUGCCUCCAAA was tested, and the “self-cleavage kobs at 2500 uM GlcN6P” value was 0.000583 ± 0.00016 s⁻¹.
AUAAAAGCGCCAGAACUACAGAAAUGUAGUUGUCGAGGAGGAGGUUUAUCGAAUGUUGGGCGGAUGCCUCCAAA was tested, and the “self-cleavage kobs at 2500 uM GlcN6P” value was less than 1e-05 s⁻¹.
In the case of AUAAAAGCGCCAGGACUACAGAAAUGUAGUUGACGGGGAGGAGGUUUAUCGAAUUGUCCGCUGAUGCCUCCAAA, the “self-cleavage kobs at 2500 uM GlcN6P” value is reported as less than 1e-05 s⁻¹.
For AUAAAAGCGCCAGAACUACAGAAAUGUAGUUGACGAGGAGGAGGUCUAUCGAAUUUACGGCGGAUGCCUCUAAA, the “self-cleavage kobs at 2500 uM GlcN6P” value was 4.35e-05 ± 1.6e-05 s⁻¹.
With AUAAAAGCGCCAGGACUACAGAAAUGUAGUUUACGAGGAGGAGGAUUAUCGAAUUUUCGGCGGAUGCCUCCAAA the “self-cleavage kobs at 2500 uM GlcN6P” value was 0.00147 ± 0.00059 s⁻¹.
In the case of AUAAAAGCGUCAGAAUUACAGAAAUGUAGUUUACGAGGAGGAGGUUUAUCGAAUUUUCGGCGGAUGCCUCCAAA, the “self-cleavage kobs at 2500 uM GlcN6P” value is reported as 6.59e-05 ± 1.7e-05 s⁻¹.
In the case of AUAAAUGCGCCAGAACUACAGAAAUGUAAUUGACGAGGAGUAGGUUUAUCGAAUUUUCGGCGGACGCUUCCAAA, the “self-cleavage kobs at 2500 uM GlcN6P” value is reported as less than 1e-05 s⁻¹.
AUAAAAGCGCCAGUAAUACAGAAAUGUAGUGUACGAGGAGGAGGUUUAUCGAAUUUUCGGCGGAUGCCUCCAAA was tested, and the “self-cleavage kobs at 2500 uM GlcN6P” value was 0.000112 ± 4.4e-05 s⁻¹.
With AUAAAAGCGCUAGAACUACAGAAAUGUAGUUGACGAGGACGAGAUUUAUCAAAUUUUCGGGGGAUGCCUCAAAA the “self-cleavage kobs at 2500 uM GlcN6P” value was less than 1e-05 s⁻¹.
In the case of AUAAAAGCACCAGAACUACAGAAAUGUAGUUGACGAGGAGGAGGUUUAUCGAAUUUUCGGCUGAUGCCGCCAAA, the “self-cleavage kobs at 2500 uM GlcN6P” value is reported as less than 1e-05 s⁻¹.
In the case of AUAAACGCGCCAGAACUACAGAAAUGUAGUUGACGAGGAGGAGGUUCAUCGAAUUUUCGGCGCAUGCCUCCAAA, the “self-cleavage kobs at 2500 uM GlcN6P” value is reported as less than 1e-05 s⁻¹.
For AUAAAAGCACCAGAACUACAGAAAUGUAGUUGACGAGGAGGACGGUUAUCGAAUUUUCGGCGGACGCCUCCAAA, the “self-cleavage kobs at 2500 uM GlcN6P” value was less than 1e-05 s⁻¹.
With AUAAAACCGGCAGAACUACAGAAAUGUAGUUGACGAGGAGGAGGUUUCUCGAAUUUUCGGCGGAUGCCUCCAAA the “self-cleavage kobs at 2500 uM GlcN6P” value was less than 1e-05 s⁻¹.
With AUAAAAGCGCCAGAACUACAGAAAUGUAGUUGACGAGGAGGAGGCUGAUCGAAUUUUCGGCGGAUGCCUCCAAA the “self-cleavage kobs at 2500 uM GlcN6P” value was 0.000218 ± 9.6e-05 s⁻¹.
AUAAAAGCGCCUGACCUACAGAAAUGUAGUUGACGAGGAGCAGGUUUAUCGAAUUUUCGGUGGAUACCUCCAAA was tested, and the “self-cleavage kobs at 2500 uM GlcN6P” value was less than 1e-05 s⁻¹.
For AUAAAAGCGCCAAAACUACAGAAAUGUAGUUGACGAGGAGGAGGUCUAUCGAAUUUUCGACGGAUGCCUCCAAA, the “self-cleavage kobs at 2500 uM GlcN6P” value was less than 1e-05 s⁻¹.
For AUAAAAGCGCCGGAUCUACAGAAAUGUAGUUGACGAGGAGGAGGUUUAUCGAACUUUCGGCGGAUGGCUCCAAA, the “self-cleavage kobs at 2500 uM GlcN6P” value was 5.41e-05 ± 1.9e-05 s⁻¹.
For AUAAAAGCGCCAGUACUACAGAAAUGUAGUUGACGAGGAGGAGGUUUGUCGAAUUUUAGGCGGUUGCCUGCAAA, the “self-cleavage kobs at 2500 uM GlcN6P” value was 5.92e-05 ± 2.4e-05 s⁻¹.
In the case of AUAAAAGCGCCAGAACUACAGAAAUGUAGUUGAUGACGAGGUGGUUUAUCGAAUUUUCGGCGGAUGCCUCCAAA, the “self-cleavage kobs at 2500 uM GlcN6P” value is reported as less than 1e-05 s⁻¹.
In the case of AUAAAAGCGCCAGAACUACAGAAAUGUAGUUCCCGAGGAGGAGGUUCAUCGAAUUUUCGGCGGCUGCCUCCAAA, the “self-cleavage kobs at 2500 uM GlcN6P” value is reported as less than 1e-05 s⁻¹.
For AUAAAAGCUCCAGAACUACAGAAAUGUAGUUGACGAGGAAGAGGGUUAUAGAAUUUUCGGCGGAUGCCUCCAAA, the “self-cleavage kobs at 2500 uM GlcN6P” value was less than 1e-05 s⁻¹.
For AUAAAAGCGGCAGAACUACAGAAAUGUAGUUCACGAGGAGGAGGUUUAUCGACUUUUCGGCGUGUGCCUCCAAA, the “self-cleavage kobs at 2500 uM GlcN6P” value was less than 1e-05 s⁻¹.
In the case of AUAAAAGCGCCAGAACUACAGAAAUGUAGUUGACGAGGGGGAGUUUUAUCGAGUUUUCGGCGGAUGCCUCCAAA, the “self-cleavage kobs at 2500 uM GlcN6P” value is reported as 0.000722 ± 0.00021 s⁻¹.
AUAAAAGCGCCAGAACUACAGAAAUGUAGUUGACGAGGAUGAGGUUUAUCGAAUUUACGGGGGAUGCCUCCAAA was tested, and the “self-cleavage kobs at 2500 uM GlcN6P” value was less than 1e-05 s⁻¹.
In the case of AUAAAAGAGCCAGAACUACAGAAAUGUAGUUGACGAGGAGGAGGUUUAUCGAAUAUUCGGCGGAUGCCUCUAAA, the “self-cleavage kobs at 2500 uM GlcN6P” value is reported as less than 1e-05 s⁻¹.
For AUAAAAGCGCCAGAACUACAGAAAUGUAGUUGACGAGGCGGAGGUAGCUCGAAUUUUCGGCGAAUGCCUCCAAA, the “self-cleavage kobs at 2500 uM GlcN6P” value was less than 1e-05 s⁻¹.
In the case of AUAAACGCGCCAGAACUACAGAAAUGUAGUUGUCGAGGAGGAGGUUUAUCGGAUUUCCGGCGGAUGCCUUCAAA, the “self-cleavage kobs at 2500 uM GlcN6P” value is reported as less than 1e-05 s⁻¹.
AUAAAAGCGCCAGAACUACAGAAAUGUAGUUGACGAGGAGGAGGUAUAUCGGAUUUUCGGCUGAUGCCUUCAAA was tested, and the “self-cleavage kobs at 2500 uM GlcN6P” value was less than 1e-05 s⁻¹.
With AUAAAAGCGCCAGAACUACAGAAAUGUAGUUGACGAGCAGGAGGUGUAUCGAAUUUUCAGCGGAUGCCUCCAAA the “self-cleavage kobs at 2500 uM GlcN6P” value was less than 1e-05 s⁻¹.
In the case of AUAAAAGCGCCAGAACUACAGAAAUGUCGUUGACGAGGAGGAGGUUUAGCGAAUAUUCGGCGGAUGCCUCCAAA, the “self-cleavage kobs at 2500 uM GlcN6P” value is reported as 0.000284 ± 7.5e-05 s⁻¹.
In the case of AUAAAAACGCCAGAACUACAGAAAUGUAGUUGACGAGGAAGAGGUUUAUCGAAUUUUCGGCGGAUGCCUCAAAA, the “self-cleavage kobs at 2500 uM GlcN6P” value is reported as less than 1e-05 s⁻¹.
In the case of AUAAAAGCGCUAGAACUACAGAAAUGUAGUUGACCAGGAGGAGGUUUAUCGAAAUUUCGUCGGAUGCCUCAAAA, the “self-cleavage kobs at 2500 uM GlcN6P” value is reported as less than 1e-05 s⁻¹.

Variants of: B1
Assay: self-cleavage kobs at 10000 uM GlcN6P; higher = faster cleavage; RNA array
Conditions: with glucosamine-6-phosphate
Method in brief: as §1
With AUAAAAGCGCCAGUAAUACAGAAAUGUAGUGUACGAGGAGGAGGUUUAUCGAAUUUUCGGCGGAUGCCUCCAAA the “self-cleavage kobs at 10000 uM GlcN6P” value was 9.26e-05 ± 2.2e-05 s⁻¹.
For AUAAAAGCACCAGAACUACAGAAAUGUAGUUGACGAGGAGGACGGUUAUCGAAUUUUCGGCGGACGCCUCCAAA, the “self-cleavage kobs at 10000 uM GlcN6P” value was less than 1e-05 s⁻¹.
With AUAAAAGCGCCAGAACUACAGAAAUGUAGUUGACGAGGGGGAGUUUUAUCGAGUUUUCGGCGGAUGCCUCCAAA the “self-cleavage kobs at 10000 uM GlcN6P” value was 0.000935 ± 0.00017 s⁻¹.
